Source: the Human Domainome abundance scans (Beltran et al. 2025)
± gives the uncertainty stated by the source.

B1: SWI/SNF complex subunit SMARCC1, residues 620 to 663; numbered along this chain, Q92922 (parent)
chain: GREWTEQETLLLLEALEMYKDDWNKVSEHVGSRTQDECILHFLR

Variants of: B1
Experiment: abundance fitness (aPCA) (normalised: wild type 0, dead -1); higher = more abundant; growth selection in yeast, the domain comes from the species named
Details: Homo sapiens
GREWTEQETWLLLEALEMYKDDWNKVSEHVGSRTQDECILHFLR showed an abundance fitness of -0.137 ± 0.083.
With GREWTEQETYLLLEALEMYKDDWNKVSEHVGSRTQDECILHFLR the abundance fitness was -0.407 ± 0.18.
GREWTEQETLLNLEALEMYKDDWNKVSEHVGSRTQDECILHFLR showed an abundance fitness of -0.938 ± 0.17.
GREWTEQETLLHLEALEMYKDDWNKVSEHVGSRTQDECILHFLR showed an abundance fitness of -0.413 ± 0.076.
In the case of GREWTEQETLLFLEALEMYKDDWNKVSEHVGSRTQDECILHFLR, the abundance fitness is reported as 0.016 ± 0.074.
With GREWTEQETLLRLEALEMYKDDWNKVSEHVGSRTQDECILHFLR the abundance fitness was -0.718 ± 0.17.
GREWTEQETLLKLEALEMYKDDWNKVSEHVGSRTQDECILHFLR showed an abundance fitness of -0.428 ± 0.13.
GREWTEQETLLALEALEMYKDDWNKVSEHVGSRTQDECILHFLR showed an abundance fitness of -0.213 ± 0.076.
GREWTEQETLLQLEALEMYKDDWNKVSEHVGSRTQDECILHFLR showed an abundance fitness of -0.372 ± 0.14.
GREWTEQETLLTLEALEMYKDDWNKVSEHVGSRTQDECILHFLR showed an abundance fitness of -0.602 ± 0.11.
For GREWTEQETLLPLEALEMYKDDWNKVSEHVGSRTQDECILHFLR, the abundance fitness was -0.709 ± 0.28.
Variant GREWTEQETLLYLEALEMYKDDWNKVSEHVGSRTQDECILHFLR has an abundance fitness of -0.103 ± 0.095.
Work on GREWTEQETLLGLEALEMYKDDWNKVSEHVGSRTQDECILHFLR yielded an abundance fitness of 0.009 ± 0.12.
With GREWTEQETLLSLEALEMYKDDWNKVSEHVGSRTQDECILHFLR the abundance fitness was -0.651 ± 0.11.
GREWTEQETLLDLEALEMYKDDWNKVSEHVGSRTQDECILHFLR gave an abundance fitness of -0.259 ± 0.17.
GREWTEQETLLVLEALEMYKDDWNKVSEHVGSRTQDECILHFLR showed an abundance fitness of -0.341 ± 0.11.
For GREWTEQETLLELEALEMYKDDWNKVSEHVGSRTQDECILHFLR, the abundance fitness was -0.129 ± 0.17.
GREWTEQETLLMLEALEMYKDDWNKVSEHVGSRTQDECILHFLR showed an abundance fitness of -0.32 ± 0.14.
In the case of GREWTEQETLLCLEALEMYKDDWNKVSEHVGSRTQDECILHFLR, the abundance fitness is reported as -0.401 ± 0.15.
In the case of GREWTEQETLKLLEALEMYKDDWNKVSEHVGSRTQDECILHFLR, the abundance fitness is reported as 0.021 ± 0.095.
For GREWTEQETLDLLEALEMYKDDWNKVSEHVGSRTQDECILHFLR, the abundance fitness was -0.19 ± 0.12.
For GREWTEQETLRLLEALEMYKDDWNKVSEHVGSRTQDECILHFLR, the abundance fitness was -0.139 ± 0.063.
Work on GREWTEQETLALLEALEMYKDDWNKVSEHVGSRTQDECILHFLR yielded an abundance fitness of -0.134 ± 0.091.
With GREWTEQETLNLLEALEMYKDDWNKVSEHVGSRTQDECILHFLR the abundance fitness was -0.304 ± 0.093.
Variant GREWTEQETLWLLEALEMYKDDWNKVSEHVGSRTQDECILHFLR has an abundance fitness of -0.258 ± 0.11.
In the case of GREWTEQETLFLLEALEMYKDDWNKVSEHVGSRTQDECILHFLR, the abundance fitness is reported as -0.096 ± 0.09.
Work on GREWTEQETLSLLEALEMYKDDWNKVSEHVGSRTQDECILHFLR yielded an abundance fitness of 0.024 ± 0.057.
For GREWTEQETLILLEALEMYKDDWNKVSEHVGSRTQDECILHFLR, the abundance fitness was -0.29 ± 0.088.
Variant GREWTEQETLELLEALEMYKDDWNKVSEHVGSRTQDECILHFLR has an abundance fitness of -0.281 ± 0.1.
In the case of GREWTEQETLPLLEALEMYKDDWNKVSEHVGSRTQDECILHFLR, the abundance fitness is reported as -0.58 ± 0.097.
With GREWTEQETLCLLEALEMYKDDWNKVSEHVGSRTQDECILHFLR the abundance fitness was -0.521 ± 0.18.
Variant GREWTEQETLTLLEALEMYKDDWNKVSEHVGSRTQDECILHFLR has an abundance fitness of 0.016 ± 0.06.
Variant GREWTEQETLMLLEALEMYKDDWNKVSEHVGSRTQDECILHFLR has an abundance fitness of 0.138 ± 0.076.
Variant GREWTEQETLGLLEALEMYKDDWNKVSEHVGSRTQDECILHFLR has an abundance fitness of -0.154 ± 0.074.
Work on GREWTEQETLVLLEALEMYKDDWNKVSEHVGSRTQDECILHFLR yielded an abundance fitness of -0.064 ± 0.08.
For GREWTEQETLLLLEATEMYKDDWNKVSEHVGSRTQDECILHFLR, the abundance fitness was 0.316 ± 0.058.
GREWTEQETLLLLEAMEMYKDDWNKVSEHVGSRTQDECILHFLR gave an abundance fitness of 0.235 ± 0.08.
Work on GREWTEQETLLLLEAWEMYKDDWNKVSEHVGSRTQDECILHFLR yielded an abundance fitness of 0.024 ± 0.082.
Work on GREWTEQETLLLLEAFEMYKDDWNKVSEHVGSRTQDECILHFLR yielded an abundance fitness of -0.231 ± 0.083.
Variant GREWTEQETLLLLEACEMYKDDWNKVSEHVGSRTQDECILHFLR has an abundance fitness of 0.197 ± 0.057.
Work on GREWTEQETLLLLEAGEMYKDDWNKVSEHVGSRTQDECILHFLR yielded an abundance fitness of -0.05 ± 0.069.
In the case of GREWTEQETLLLLEAHEMYKDDWNKVSEHVGSRTQDECILHFLR, the abundance fitness is reported as 0.303 ± 0.073.
With GREWTEQETLLLLEAYEMYKDDWNKVSEHVGSRTQDECILHFLR the abundance fitness was 0.334 ± 0.063.
GREWTEQETLLLLEADEMYKDDWNKVSEHVGSRTQDECILHFLR showed an abundance fitness of -0.237 ± 0.093.
Work on GREWTEQETLLLLEASEMYKDDWNKVSEHVGSRTQDECILHFLR yielded an abundance fitness of 0.094 ± 0.063.
Variant GREWTEQETLLLLEAQEMYKDDWNKVSEHVGSRTQDECILHFLR has an abundance fitness of 0.428 ± 0.075.
GREWTEQETLLLLEAAEMYKDDWNKVSEHVGSRTQDECILHFLR gave an abundance fitness of 0.16 ± 0.051.
Work on GREWTEQETLLLLEAIEMYKDDWNKVSEHVGSRTQDECILHFLR yielded an abundance fitness of 0.079 ± 0.091.
In the case of GREWTEQETLLLLEAREMYKDDWNKVSEHVGSRTQDECILHFLR, the abundance fitness is reported as 0.469 ± 0.052.
GREWTEQETLLLLEAVEMYKDDWNKVSEHVGSRTQDECILHFLR gave an abundance fitness of 0.224 ± 0.058.
Variant GREWTEQETLLLLEAEEMYKDDWNKVSEHVGSRTQDECILHFLR has an abundance fitness of 0.274 ± 0.073.
In the case of GREWTEQETLLLLEANEMYKDDWNKVSEHVGSRTQDECILHFLR, the abundance fitness is reported as 0.136 ± 0.072.
For GREWTEQETLLLLEAPEMYKDDWNKVSEHVGSRTQDECILHFLR, the abundance fitness was -0.77 ± 0.11.
Work on GREWTEQETLLLLEALHMYKDDWNKVSEHVGSRTQDECILHFLR yielded an abundance fitness of -0.357 ± 0.18.
Work on GREWTEQETLLLLEALMMYKDDWNKVSEHVGSRTQDECILHFLR yielded an abundance fitness of -0.722 ± 0.2.
Work on GREWTEQETLLLLEALFMYKDDWNKVSEHVGSRTQDECILHFLR yielded an abundance fitness of -0.548 ± 0.33.
Work on GREWTEQETLLLLEALQMYKDDWNKVSEHVGSRTQDECILHFLR yielded an abundance fitness of -0.033 ± 0.11.
GREWTEQETLLLLEALAMYKDDWNKVSEHVGSRTQDECILHFLR gave an abundance fitness of -0.087 ± 0.072.
